Results published in ChEMBL document CHEMBL2074463, “Characterization of the hepatic canalicular membrane transport of a model oligopeptide: ditekiren” (J Pharmacol Exp Ther, 1997).

Tested on: CC[C@H](C)[C@H](NC(=O)[C@@H](C[C@H](O)[C@H](CC(C)C)NC(=O)[C@H](Cc1c[nH]cn1)N(C)C(=O)[C@H](Cc1ccccc1)NC(=O)[C@@H]1CCCN1C(=O)OC(C)(C)C)C(C)C)C(=O)NCc1ccccn1
Assay: TP_TRANSPORTER: uptake, inhibited by Cyclosporine, Nicardipine, Daunomycin, Verapamil, Reserpine, Rhodamine 123 and Vinblastine in bile canalicular membrane vesicles
Type: functional, cell membranes
Conditions: Rattus norvegicus; Bile canalicular membrane vesicle

Multidrug resistance protein 1a (Rattus norvegicus), Q6PSM0
Km: 19.1 µM
